US20080260745A1

Biological target: HLA-A2 on T2 cells
Test: T2 HLA-stabilization assay, HLA-A2 level by flow cytometry
Conditions: remark: other sources report otherwise

mean fluorescence intensity (mean fluorescence intensity): 682
Binder: IISAVVGIL [GP2 peptide from HER2/neu]
